The experiment deals with TRIM7^B30.2 (PRY-SPRY domain of human TRIM7, residues 338-511) (human, UniProt Q9C029 338-511). In words: ITC. (In general: In ITC the heat of successive injections is recorded.)

Regarding KRKLDTYLQ [GN1 peptide (KRKLDTYLQ), Ct-nonapeptide of glycogenin-1], the Kd stood at 2700 nM.

By Kd is commonly meant the constant that tells how readily two partners part at equilibrium.

The values are drawn from article PMC9335266 (Proceedings of the National Academy of Sciences of the …, 2022).
